Source: article PMC3399781

Experiments:
[1] = biological target: HIV-1 glycoprotein gp120 (HIV-1) (UniProt P04578); experiment: ITC
[2] = biological target: 1GS mGRFT (GRFT with GS inserted between Ser16 and Gly17) (Griffithsia sp.) (UniProt P84801); experiment: AUC

Substance | Kd [1] | dH [1] | Kd [2]
1GS-S mGRFT (L2S variant of 1GS) (from UniProt P84801 1-121) (natural protein) | 0.112 µM | -35.5 kcal/mol | –
1GS mGRFT (GRFT with GS inserted between Ser16 and Gly17) (from UniProt P84801 1-121) (natural protein) | – | – | 120 µM
